Ends that are not written are not given here.
B1: norovirus-binding peptide of SEQ ID NO: 263 (peptide)
peptide: ANYRWSRSIK
modifications: also: biotinylated via PEG3 (AEEEA)-Trp spacer, attachment site and resin-derived C-terminal Lys or Cys not given here
B2: norovirus-binding peptide of SEQ ID NO: 167 (peptide)
peptide: FVWRRRAGLY
modifications: also: biotinylated via PEG3 (AEEEA)-Trp spacer, attachment site and resin-derived C-terminal Lys or Cys not given here
B3: norovirus-binding peptide of SEQ ID NO: 283 (peptide)
peptide: RSMSLHVSMT
modifications: also: biotinylated via PEG3 (AEEEA)-Trp spacer, attachment site and resin-derived C-terminal Lys or Cys not given here
B4: norovirus-binding peptide of SEQ ID NO: 288 (peptide)
peptide: CKARSARGVS
modifications: also: biotinylated via PEG3 (AEEEA)-Trp spacer, attachment site and resin-derived C-terminal Lys or Cys not given here
B5: norovirus-binding peptide of SEQ ID NO: 205 (peptide)
peptide: FVWSRRTGLY
modifications: also: biotinylated via PEG3 (AEEEA)-Trp spacer, attachment site and resin-derived C-terminal Lys or Cys not given here
B6: norovirus-binding peptide of SEQ ID NO: 302 (peptide)
peptide: VWWGRRISRF
modifications: also: biotinylated via PEG3 (AEEEA)-Trp spacer, attachment site and resin-derived C-terminal Lys or Cys not given here
B7: norovirus-binding peptide of SEQ ID NO: 103 (peptide)
peptide: RFLVPVVKVM
modifications: also: biotinylated via PEG3 (AEEEA)-Trp spacer, attachment site and resin-derived C-terminal Lys or Cys not given here

Assays:
[1] = molecular target: norovirus GII.3 TCH strain virus-like particle (VLP) (norovirus GII.3 TCH strain); assay: BLI (BLItz), biotinylated peptide on SA chip, VLP in solution
[2] = molecular target: norovirus GII.17 Saitama strain virus-like particle (VLP) (norovirus GII.17 Saitama strain); assay: as above

Binder	Kd [1]	koff [1]	kon [1]	Kd [2]	koff [2]	kon [2]
B1	57.5 nM	0.049 s⁻¹	851000 M⁻¹ s⁻¹	–	–	–
B2	1.39 nM	0.00435 s⁻¹	3.14e+06 M⁻¹ s⁻¹	0.696 nM	0.00111 s⁻¹	1.59e+06 M⁻¹ s⁻¹
B3	0.909 nM	0.00715 s⁻¹	7.86e+06 M⁻¹ s⁻¹	1.39 nM	0.00138 s⁻¹	994000 M⁻¹ s⁻¹
B4	6.86 nM	0.0143 s⁻¹	2.09e+06 M⁻¹ s⁻¹	12 nM	0.00747 s⁻¹	620000 M⁻¹ s⁻¹
B5	31.6 nM	0.0325 s⁻¹	1.03e+06 M⁻¹ s⁻¹	109 nM	0.0184 s⁻¹	169000 M⁻¹ s⁻¹
B6	–	–	–	28.4 nM	0.0648 s⁻¹	2.28e+06 M⁻¹ s⁻¹
B7	8.07 nM	0.017 s⁻¹	2.1e+06 M⁻¹ s⁻¹	8.13 nM	0.0112 s⁻¹	1.38e+06 M⁻¹ s⁻¹
